Molecular target: Recombinant B19 parvovirus empty capsid particles (VP1/2) (B19 parvovirus) (UniProt P07299)
Assay: cell-based or functional assay

Work on “anti-B19 parvovirus monoclonal antibody (MAB8292)” yielded a BFU-E colony counts (% of medium control), fetal liver cells; capsid 7 µg/ml + 0.02 µg/mL Mab (capsid only: 43%) (% of medium control) of 52, a BFU-E colony counts (% of medium control), fetal liver cells; capsid 7 µg/ml + 0.2 µg/mL Mab (capsid only: 43%) (% of medium control) of 52 and a BFU-E colony counts (% of medium control), fetal liver cells; capsid 7 µg/ml + 2.0 µg/mL Mab (capsid only: 43%) (% of medium control) of 69. For the same substance, the BFU-E colony counts (% of medium control), fetal liver cells; capsid 7 µg/ml + 20.0 µg/mL Mab (capsid only: 43%) (% of medium control) was greater than 100, the CFU-GEMM colony counts (% of medium control), fetal liver cells; capsid 7 µg/ml + 0.02 µg/mL Mab (capsid only: 21%) (% of medium control) was 21 and the CFU-GEMM colony counts (% of medium control), fetal liver cells; capsid 7 µg/ml + 0.2 µg/mL Mab (capsid only: 21%) (% of medium control) was 19. It also gave a CFU-GEMM colony counts (% of medium control), fetal liver cells; capsid 7 µg/ml + 2.0 µg/mL Mab (capsid only: 21%) (% of medium control) of 45, a CFU-GEMM colony counts (% of medium control), fetal liver cells; capsid 7 µg/ml + 20.0 µg/mL Mab (capsid only: 21%) (% of medium control) of 67 and a CFU-GM colony counts (% of medium control), fetal liver cells; capsid 7 µg/ml + 0.02 µg/mL Mab (capsid only: 30%) (% of medium control) of 30. It also gave a CFU-GM colony counts (% of medium control), fetal liver cells; capsid 7 µg/ml + 0.2 µg/mL Mab (capsid only: 30%) (% of medium control) of 21, a CFU-GM colony counts (% of medium control), fetal liver cells; capsid 7 µg/ml + 2.0 µg/mL Mab (capsid only: 30%) (% of medium control) of 35 and a CFU-GM colony counts (% of medium control), fetal liver cells; capsid 7 µg/ml + 20.0 µg/mL Mab (capsid only: 30%) (% of medium control) of 74.
